Data on 1 molecule can be found in patent publication CN112125972A (SINOCELLTECH LTD, dated 2020).

What all share (assay): double-antibody sandwich ELISA, R001 as capture and HRP-R001 as detection, mixture of HPV types
In general terms: An ELISA detects its analyte on a solid surface through an enzyme-linked reagent.

One assay deals with T1, HPV51 VLP (Human papillomavirus type 51, UniProt P26536 1-504).
T1 construct: also called HPV51完整VLP蛋白
T1 sequence: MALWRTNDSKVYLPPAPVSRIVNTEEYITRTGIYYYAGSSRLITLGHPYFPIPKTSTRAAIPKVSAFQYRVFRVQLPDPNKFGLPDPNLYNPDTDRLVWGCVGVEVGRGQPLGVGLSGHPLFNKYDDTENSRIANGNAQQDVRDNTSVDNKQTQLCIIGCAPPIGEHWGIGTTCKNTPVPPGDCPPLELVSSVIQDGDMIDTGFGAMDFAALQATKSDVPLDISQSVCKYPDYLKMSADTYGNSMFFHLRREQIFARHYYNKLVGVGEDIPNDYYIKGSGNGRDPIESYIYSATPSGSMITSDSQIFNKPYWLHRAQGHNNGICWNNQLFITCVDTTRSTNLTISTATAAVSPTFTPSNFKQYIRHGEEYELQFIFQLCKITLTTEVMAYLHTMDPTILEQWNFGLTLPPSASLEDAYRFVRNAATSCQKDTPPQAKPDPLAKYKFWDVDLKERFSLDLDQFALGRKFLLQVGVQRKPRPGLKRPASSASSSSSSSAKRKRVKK

Another assay has as its target T2, HPV39 VLP (Human papillomavirus type 39, UniProt P24838 1-505).
T2 construct: also called HPV39完整VLP蛋白
T2 sequence: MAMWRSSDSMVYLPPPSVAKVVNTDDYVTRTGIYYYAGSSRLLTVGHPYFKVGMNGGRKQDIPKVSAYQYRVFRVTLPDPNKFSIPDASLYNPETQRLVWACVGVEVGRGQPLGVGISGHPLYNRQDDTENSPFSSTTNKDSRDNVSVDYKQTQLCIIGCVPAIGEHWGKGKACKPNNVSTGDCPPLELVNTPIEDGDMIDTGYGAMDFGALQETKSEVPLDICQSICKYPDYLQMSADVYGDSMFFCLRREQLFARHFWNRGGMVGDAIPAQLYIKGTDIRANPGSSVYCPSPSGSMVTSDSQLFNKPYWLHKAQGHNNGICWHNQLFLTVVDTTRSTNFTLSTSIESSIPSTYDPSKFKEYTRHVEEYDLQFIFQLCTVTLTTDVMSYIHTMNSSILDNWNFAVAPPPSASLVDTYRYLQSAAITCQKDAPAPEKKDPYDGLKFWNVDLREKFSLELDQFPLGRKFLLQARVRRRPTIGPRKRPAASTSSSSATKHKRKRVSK

Another assay has as its target T3, HPV35 VLP (Human papillomavirus type 35, UniProt P27232 1-502).
T3 construct: also called HPV35完整VLP蛋白
T3 sequence: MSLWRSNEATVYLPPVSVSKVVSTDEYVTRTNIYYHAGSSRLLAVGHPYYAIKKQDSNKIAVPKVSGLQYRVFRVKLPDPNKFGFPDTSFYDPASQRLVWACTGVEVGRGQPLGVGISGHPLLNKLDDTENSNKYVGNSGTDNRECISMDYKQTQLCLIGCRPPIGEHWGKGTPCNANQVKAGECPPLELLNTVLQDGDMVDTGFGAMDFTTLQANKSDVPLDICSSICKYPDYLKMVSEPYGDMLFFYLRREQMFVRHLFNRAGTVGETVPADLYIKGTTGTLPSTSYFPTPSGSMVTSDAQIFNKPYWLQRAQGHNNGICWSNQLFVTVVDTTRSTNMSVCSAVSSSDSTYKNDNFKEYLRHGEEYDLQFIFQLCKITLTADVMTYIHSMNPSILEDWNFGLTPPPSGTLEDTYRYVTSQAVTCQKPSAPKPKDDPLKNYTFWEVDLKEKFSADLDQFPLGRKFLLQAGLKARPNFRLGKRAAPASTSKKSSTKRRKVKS

A further assay concerns the target T4, HPV11 VLP (Human papillomavirus type 11, UniProt P04012 1-501).
T4 construct: also called HPV11完整VLP蛋白
T4 sequence: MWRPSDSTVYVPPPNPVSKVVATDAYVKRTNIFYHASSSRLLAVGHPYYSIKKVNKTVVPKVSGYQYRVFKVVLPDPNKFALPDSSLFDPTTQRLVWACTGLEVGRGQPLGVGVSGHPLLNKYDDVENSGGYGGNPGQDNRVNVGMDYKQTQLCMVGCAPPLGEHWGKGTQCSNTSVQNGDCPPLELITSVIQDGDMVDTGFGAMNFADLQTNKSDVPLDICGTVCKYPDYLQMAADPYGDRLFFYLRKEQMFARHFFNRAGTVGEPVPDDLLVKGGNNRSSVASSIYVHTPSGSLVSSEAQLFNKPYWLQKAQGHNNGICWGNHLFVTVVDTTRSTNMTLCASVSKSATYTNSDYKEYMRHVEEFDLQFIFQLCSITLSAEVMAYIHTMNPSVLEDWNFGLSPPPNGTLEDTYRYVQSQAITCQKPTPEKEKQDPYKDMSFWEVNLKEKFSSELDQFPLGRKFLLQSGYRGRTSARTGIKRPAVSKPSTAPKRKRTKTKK

The target in a further assay is T5, HPV45 VLP (Human papillomavirus type 45, UniProt P36741 27-539).
T5 construct: also called HPV45完整VLP蛋白
T5 sequence: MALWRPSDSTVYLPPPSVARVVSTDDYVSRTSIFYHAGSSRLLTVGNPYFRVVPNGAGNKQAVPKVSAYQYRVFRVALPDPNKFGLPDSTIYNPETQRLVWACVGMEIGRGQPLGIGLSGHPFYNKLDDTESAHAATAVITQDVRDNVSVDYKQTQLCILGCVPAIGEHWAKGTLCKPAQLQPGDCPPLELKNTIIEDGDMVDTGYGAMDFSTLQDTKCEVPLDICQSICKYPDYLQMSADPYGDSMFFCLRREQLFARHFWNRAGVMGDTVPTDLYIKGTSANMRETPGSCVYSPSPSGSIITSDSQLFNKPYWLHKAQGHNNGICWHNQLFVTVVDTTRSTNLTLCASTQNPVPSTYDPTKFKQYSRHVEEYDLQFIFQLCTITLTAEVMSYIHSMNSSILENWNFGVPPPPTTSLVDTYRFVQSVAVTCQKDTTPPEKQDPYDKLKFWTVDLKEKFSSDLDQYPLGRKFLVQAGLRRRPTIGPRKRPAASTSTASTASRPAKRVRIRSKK

B1: HPV 16 R001 (antibody, V domains shown)
VH: QSVKESEGRLVTPGTPLTLTCTASGFTMSRYHMTWVRQAPGKGLEWIGIIYARNSDTYYANWAKGRFTISKTSTTVDLKITSPTIEDTATYFCARVDSDSSGAFDRLDLWGQGTLVTVSS
VL: DPMLTQTAASVEVAVGGTVTIKCQASQSIGGYLSWYQQKPGQRPKLLIYRASTLASGVPSRFKGSGSGTEYTLTFSGVECADAAAYYCQQGYTSSDINNAFGGGTEVVVK
notes: An HRP-labelled form served as detection antibody in the sandwich ELISA; also called HPV16.001; 单克隆抗体HPV 16 R001
B1: the binding result with HPV51 VLP, with HPV39 VLP, with HPV35 VLP, with HPV11 VLP and with HPV45 VLP was “no binding (tested: 50ng/mL，25ng/mL，12.5ng/mL)” in each case.
